1 molecule from US20180326086A1 (UNIVERSITY OF BRITISH COLUMBIA, published 2018) can be followed below.

What all share (experiment): SPR direct binding, antigen immobilized, hybridoma supernatant
Assay [1] has as its target T1, cyclo(CGHDSGG)-conjugated-BSA (SEQ ID NO: 2) (bovine, UniProt P02769 25-607, head-to-tail cyclized (amide bond between N-terminus and C-terminus); Cys conjugated to BSA through SMCC).
T1 construct: HDSG is A-beta residues 6-9; C, G and GG are linker residues; also called Cyclic-Peptide; cyclic peptide
The protocol: (§1) SPR Analysis All SPR measurements were performed using a Molecular Affinity Screening System (MASS-1) (Sierra Sensors GmbH, Hamburg, Germany), an analytical biosensor that employs high intensity laser light and high speed optical scanning to monitor binding interactions in real time. The primary screening of tissue culture supernatants was performed using an SPR direct binding assay, whereby BSA-conjugated peptides, A-Beta42 Monomer and A-beta42 Oligomer are covalently immobilized on individual flow cells of a High Amine Capacity (HAC) sensorchip (Sierra Sensors GmbH, Hamburg, Germany) and antibodies flowed over the surface. Protein G purified mAbs were analyzed in a secondary screen using an SPR indirect (capture) binding assay, whereby the antibodies were captured on a protein A-derivatized sensorchip (XanTec Bioanalytics GmbH, Duesseldorf, Germany) and A-Beta40 Monomer, A-beta42 Oligomer, soluble brain extracts and cerebrospinal fluid flowed over the surface. The specificity of the antibodies was verified in an SPR direct binding assay by covalently immobilizing A-Beta42 Monomer and A-beta42 Oligomer on individual flow cells of a HAC sensorchip and flowing purified mAbs.
(§2) Clones were retested for their ability to bind cyclic peptide, linear peptide, A-beta 1-42 monomer and A-beta 1-42 oligomers prepared as described above. Binding assays were performed using SPR as described above (Direct binding assays).

Another assay concerns the target T2, A-beta42 monomer (human).
T2 construct: also called Aβ 42 Monomer; A-beta 1-42 monomer
The protocol:
as §1, §2

The target of a further assay is T3, A-beta42 oligomer (human).
T3 construct: also called Aβ 42 Oligomer; A-beta 1-42 oligomers
T3 sequence (peptide, as listed by the source): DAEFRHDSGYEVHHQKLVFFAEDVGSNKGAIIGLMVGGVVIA
The protocol:
as §1, §2

T2 sequence (peptide, as listed by the source): as above
T1 sequence (P02769 25-607 limits assumed): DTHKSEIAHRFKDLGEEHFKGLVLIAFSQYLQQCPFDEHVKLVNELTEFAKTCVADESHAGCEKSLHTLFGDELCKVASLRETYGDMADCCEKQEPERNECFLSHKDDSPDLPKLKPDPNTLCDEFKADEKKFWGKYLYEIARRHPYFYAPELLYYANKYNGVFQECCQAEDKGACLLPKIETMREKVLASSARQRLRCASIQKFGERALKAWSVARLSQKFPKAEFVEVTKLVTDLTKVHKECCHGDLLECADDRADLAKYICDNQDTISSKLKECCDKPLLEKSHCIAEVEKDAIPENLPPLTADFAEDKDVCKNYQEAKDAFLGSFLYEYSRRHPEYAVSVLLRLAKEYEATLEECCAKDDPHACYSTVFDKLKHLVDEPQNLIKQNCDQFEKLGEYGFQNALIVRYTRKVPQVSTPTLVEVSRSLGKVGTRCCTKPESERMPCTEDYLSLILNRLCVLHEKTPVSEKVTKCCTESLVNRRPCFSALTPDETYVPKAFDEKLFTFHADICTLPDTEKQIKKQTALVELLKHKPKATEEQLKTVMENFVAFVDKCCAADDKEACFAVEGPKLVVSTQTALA

B1: 303-25-1B4 (antibody, V domains shown)
VH: QVQLQQPGAELVRPGASVKLSCKASGYTFTSYWMNWVKQRPGQGLEWIGMIDPSDSQTHYNQMFKDKATLTVDKSSSTAYLQLSSLTSEDSAVYYCSRGGYWGQGTTLTVSS
VL: DIQMTQSPSSLSASLGGKVTITCKASQDINNYIAWYQHKPGKGPRQLIYYTSTLQPGIPSRFSGSGSGRDYSFTISDLEPEDIATYYCLQYDNLWTFGGGTKLEIK
notes: Mouse monoclonal raised against cyclo(CGHDSGG)-KLH; also called clone 25
As to B1, the “SPR binding response (RU)” value was 136 RU in assay [1], 56.5 RU with A-beta42 monomer and 109 RU with A-beta42 oligomer.
